What was measured:
Assay in all cases: cell-based or functional assay
[1] = molecular target: T1, Lodderomyces elongisporous fungal pheromone GPCR (Lodderomyces elongisporous)
T1 sequence: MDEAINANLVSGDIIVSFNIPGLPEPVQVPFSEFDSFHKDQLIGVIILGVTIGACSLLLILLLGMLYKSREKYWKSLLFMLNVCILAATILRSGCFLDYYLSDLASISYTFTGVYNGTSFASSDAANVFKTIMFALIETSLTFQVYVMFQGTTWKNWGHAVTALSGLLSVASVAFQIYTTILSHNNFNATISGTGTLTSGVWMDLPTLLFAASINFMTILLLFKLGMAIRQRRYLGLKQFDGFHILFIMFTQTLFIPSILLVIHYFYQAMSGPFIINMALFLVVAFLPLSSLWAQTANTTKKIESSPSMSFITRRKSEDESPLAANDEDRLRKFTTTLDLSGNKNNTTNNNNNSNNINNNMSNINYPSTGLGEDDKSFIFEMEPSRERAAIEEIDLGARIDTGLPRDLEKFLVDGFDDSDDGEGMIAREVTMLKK

[2] = molecular target: Magnaporthe oryzea fungal pheromone GPCR (Magnaporthe oryzea)
[3] = molecular target: T2, Candida glabrata fungal pheromone GPCR (Candida glabrata)
T2 sequence: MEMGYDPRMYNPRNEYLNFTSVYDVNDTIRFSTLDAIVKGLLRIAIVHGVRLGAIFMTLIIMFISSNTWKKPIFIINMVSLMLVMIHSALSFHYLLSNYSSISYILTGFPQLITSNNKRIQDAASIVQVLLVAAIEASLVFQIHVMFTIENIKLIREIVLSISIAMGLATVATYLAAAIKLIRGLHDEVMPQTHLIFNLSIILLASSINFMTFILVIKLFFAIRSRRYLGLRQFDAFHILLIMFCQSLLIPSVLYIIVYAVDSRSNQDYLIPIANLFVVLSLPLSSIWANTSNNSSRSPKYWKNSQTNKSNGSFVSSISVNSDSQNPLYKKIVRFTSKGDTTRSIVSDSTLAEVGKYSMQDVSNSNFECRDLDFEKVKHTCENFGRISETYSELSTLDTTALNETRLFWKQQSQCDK

[4] = molecular target: Fusarium graminearum fungal pheromone GPCR (Fusarium graminearum)
[5] = molecular target: T3, Botrytis cinerea fungal pheromone GPCR (Botrytis cinerea)
T3 sequence: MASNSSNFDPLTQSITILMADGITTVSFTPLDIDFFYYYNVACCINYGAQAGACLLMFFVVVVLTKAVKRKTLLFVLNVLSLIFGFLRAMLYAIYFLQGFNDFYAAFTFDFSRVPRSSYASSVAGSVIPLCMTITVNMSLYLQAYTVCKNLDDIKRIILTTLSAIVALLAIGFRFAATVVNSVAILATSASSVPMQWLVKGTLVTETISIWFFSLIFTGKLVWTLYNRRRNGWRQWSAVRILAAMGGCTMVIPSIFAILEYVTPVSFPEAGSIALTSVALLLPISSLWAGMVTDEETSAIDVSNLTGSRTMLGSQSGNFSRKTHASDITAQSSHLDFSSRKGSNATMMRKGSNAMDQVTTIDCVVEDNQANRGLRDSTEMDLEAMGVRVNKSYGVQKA

[6] = molecular target: T4, Saccharomyces cerevisiae Ste2 pheromone receptor, wild type (Saccharomyces cerevisiae) (UniProt D6VTK4)
T4 sequence: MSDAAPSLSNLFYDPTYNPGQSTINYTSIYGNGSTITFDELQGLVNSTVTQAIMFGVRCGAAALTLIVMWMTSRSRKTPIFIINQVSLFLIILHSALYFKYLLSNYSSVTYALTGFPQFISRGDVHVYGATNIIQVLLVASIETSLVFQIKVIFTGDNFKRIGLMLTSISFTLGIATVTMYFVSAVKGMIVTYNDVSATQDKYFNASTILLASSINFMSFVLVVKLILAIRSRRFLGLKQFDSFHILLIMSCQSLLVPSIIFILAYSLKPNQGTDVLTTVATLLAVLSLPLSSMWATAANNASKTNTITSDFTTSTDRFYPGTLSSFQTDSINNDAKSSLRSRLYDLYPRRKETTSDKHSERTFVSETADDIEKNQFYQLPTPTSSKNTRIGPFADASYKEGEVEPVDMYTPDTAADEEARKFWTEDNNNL

[7] = molecular target: Paracoccidioides brasiliensis fungal pheromone GPCR (Paracoccidioides brasiliensis)
[8] = molecular target: T5, Candida albicans fungal pheromone GPCR (Candida albicans)
T5 sequence: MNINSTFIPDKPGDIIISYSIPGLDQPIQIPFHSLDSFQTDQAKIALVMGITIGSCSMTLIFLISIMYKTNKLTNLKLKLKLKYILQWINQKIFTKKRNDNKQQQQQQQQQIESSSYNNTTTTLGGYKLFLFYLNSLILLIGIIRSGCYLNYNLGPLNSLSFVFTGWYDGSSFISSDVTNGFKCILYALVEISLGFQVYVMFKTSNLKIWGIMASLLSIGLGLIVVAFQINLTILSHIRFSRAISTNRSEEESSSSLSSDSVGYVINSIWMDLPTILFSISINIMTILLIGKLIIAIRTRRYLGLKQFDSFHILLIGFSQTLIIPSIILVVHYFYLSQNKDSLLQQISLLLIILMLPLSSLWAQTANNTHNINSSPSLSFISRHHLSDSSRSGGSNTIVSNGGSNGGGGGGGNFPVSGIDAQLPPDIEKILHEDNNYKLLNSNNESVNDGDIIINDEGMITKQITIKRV

“Lodderomyces elongisporous mating peptide pheromone …” showed an EC50 (biosensor strain, fluorescence) [1] of 51 nM.

With “Magnaporthe oryzea mating peptide pheromone […]” the EC50 (fluorescent reporter) [2] was 5000 nM.

In the case of “Candida glabrata mating peptide pheromone …”, the EC50 (biosensor strain, fluorescence) [3] is reported as 3600 nM.

With “Fusarium graminearum mating peptide pheromone […]” the EC50 (fluorescent reporter) [4] was 230 nM.

For “Botrytis cinerea mating peptide pheromone …”, the EC50 (fluorescent reporter) [5] was < 1 nM.

For “S. cerevisiae α-Factor, wild type, … (peptide)”, the EC50 (biosensor strain, fluorescence) [6] was 190 nM.

With “Paracoccidioides brasiliensis mating peptide […]” the EC50 (biosensor strain, fluorescence) [7] was 34 nM and the EC50 (fluorescent reporter) [7] was 9 nM.

For “Candida albicans mating peptide pheromone …”, the EC50 (biosensor strain, fluorescence) [8] was 4 nM and the EC50 (fluorescent reporter) [8] was 51 nM.

Reference: patent publication US20170336407A1
